These results are taken from patent publication US20260234247A1 (published 2026).

The chains are these.
B1: LK-RB1-24 (antibody, human IgG4 S228P, kappa, V domains shown)
VH: QVQLQQPGAELVNPGTSVNLSCKASGYTFTGYWMHWVKQRPGQGLEWIGMIHPNNGGTIYNERFNGKATLTVDRSSTTAYIQLSSLTSEDSAVYYCAYWDLDYWGQGTTLTVSS
VL: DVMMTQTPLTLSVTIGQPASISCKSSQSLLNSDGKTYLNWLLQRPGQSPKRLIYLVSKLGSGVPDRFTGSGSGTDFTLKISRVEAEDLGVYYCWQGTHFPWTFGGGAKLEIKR
B2: LK-RB1-25 (antibody, human IgG4 S228P, kappa, V domains shown)
VH: QIQLVQSGPELKKPGETVKISCKASGYTFTSYGMNWMKQAPGEGLKWMGWINTYSGVPTYADDFKGRFAFSLETSATTVYLQINNLKNEDKATYFCARRGRDSVVGHFDVWGTGTTVTVSS
VL: DIVMTQSHKFMSTSVGDRVSITCKASQDVNTAVAWYQQKPGQSPKLLIYWASTRHTGVPDRFTGSGSGTDFTLTISSVQAEDLALYYCQQHYTIPFTFGSGTKLEIKR
B3: LK-RB1-33 (antibody, human IgG4 S228P, kappa, V domains shown)
VH: B2 VH with E16D, M37V, A61G, T77S, V79A, K87E, K91T
VL: B2 VL with K103R
B4: LK-RB1-20 (antibody, human IgG4 S228P, kappa)
heavy: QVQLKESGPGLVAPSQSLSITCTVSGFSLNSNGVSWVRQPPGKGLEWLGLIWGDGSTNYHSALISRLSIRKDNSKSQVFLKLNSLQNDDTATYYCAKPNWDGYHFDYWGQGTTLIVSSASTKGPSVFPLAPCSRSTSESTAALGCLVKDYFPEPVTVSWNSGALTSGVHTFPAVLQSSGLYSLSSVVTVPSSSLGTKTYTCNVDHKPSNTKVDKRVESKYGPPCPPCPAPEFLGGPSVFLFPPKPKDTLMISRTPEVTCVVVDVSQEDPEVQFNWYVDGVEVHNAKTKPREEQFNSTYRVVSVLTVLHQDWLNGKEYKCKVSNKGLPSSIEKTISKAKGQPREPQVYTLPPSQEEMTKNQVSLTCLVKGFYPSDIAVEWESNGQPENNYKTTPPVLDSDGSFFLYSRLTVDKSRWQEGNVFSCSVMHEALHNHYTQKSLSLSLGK
light: DIQMNQSPSSLSASLGDTITITCHASQNIDFWLSWYQQKPGNIPKLLIYKASNLHTGVPSRFSGSGSGTGFTLTISSLQPEDIATYYCQQGQSYPLTFGAGTKLELKRTVAAPSVFIFPPSDEQLKSGTASVVCLLNNFYPREAKVQWKVDNALQSGNSQESVTEQDSKDSTYSLSSTLTLSKADYEKHKVYACEVTHQGLSSPVTKSFNRGEC
B5: LK-RB1-23 (antibody, human IgG4 S228P, kappa, V domains shown)
VH: QVQLQQTGAELVRPGSSVKLSCKASGYTFTNYWMDWVKQRPGQGLEWIGNIHPFGNETHYNQKFKDKATLTVDKSSSTAYMQLSSLTSEDSAVYYCARGLLLYFDVWGTGTTVTVSS
VL: DIQMTQSPASQSVSVGETVTITCRASENIYSNLAWYQQKQGKSPQLLVYGATNLADGVSLRFSGSGSGTQYSLKINSLQSEDFGSYYCQHFWGIPWTFGGGTKLEIKR
B6: LK-RB1-27 (antibody, human IgG4 S228P, kappa, V domains shown)
VH: QVQLQQSGPELVKPGASVRMSCKASGYTFTSHYIHWMKQRPGQGLEWIGWIYPGDGHTKYHEKFKDRATLTADTSSITAYMRLSSLTSEDSAIYYCVYYSDSWFPYWGQGTLVTVSA
VL: B5 VL with Q11L, Q45H, G50A, S59P, L60S, S85N, I94S
B7: LK-RB1-18 (antibody, human IgG4 S228P, kappa, V domains shown)
VH: QVQLKESGPGLVAPSQSLSITCTVSGFSLTNSGVTWIRQPPGKGLEWLGVIWGDGSTNYHSALISRLSISKDNSKSQVFLKLNSLQTDDTATYYCAKPHWDYYNMDYWGQGTSVTVSS
VL: DIQMTQTPSSLSASLGDRVTISCRASQDISNYLNWYQQKPDGTVKLLIYFTSRLHSGVPSRFSGSGSGTDYSLTISNLEQEDFATYFCQQGITLPLTFGAGTKLELKR
B8: LK-RB1-30 (antibody, human IgG4 S228P, kappa, V domains shown)
VH: B7 VH with N31S, S32Y, T35S, S56N, H99S, N104A
VL: VIQMTQTTSSLSASLGDRVTISCRASQDISNYVNWYQQRPDGTVKLLISYTSRLHSGVPSRFSGSGSGTDYSLTITNLEQEDIATYFCQQGITLPCTFGGGTKLEINR
B9: LK-RB1-26 (antibody, human IgG4 S228P, kappa, V domains shown)
VH: B7 VH with N31S, S32Y, T35S, I37V, V50I, H99N, N104A
VL: B7 VL with P8T, Y32F, V44F, Y49S, F50Y, R53T, F83V, I92N, E105A
B10: LK-RB1-19 (antibody, human IgG4 S228P, kappa, V domains shown)
VH: QVQLKESGPGLVAPSQNLSITCTVSGFSLTSYGVSWVRQPPGKGLEWLGIIWGDGNTDYHSALISRLSIRKDNSKSQVFLKLNSLKSDDTATYYCAKPHWEYYTMDYWGQGTSVTVSS
VL: B7 VL with P8T, Y32F, F50S, S76A, F83V, I92N
B11: LK-RB1-22 (antibody, human IgG4 S228P, kappa, V domains shown)
VH: B10 VH with N17S, D58N, I64T, R70S, K86R, S87T, E101D, Y102H, T104S
VL: B7 VL with P8T, Y32F, F50Y, V58A, E79D, F83I, I92N
B12: LK-RB1-29 (antibody, human IgG4 S228P, kappa, V domains shown)
VH: QVQLKESGPGLVAPSQNLAITCTVSGFSLTNSGVSWVRQSPGKGLEWLGIIWGDGNTNYHSALISRLSISKDNSKSQVFLKLNSLQTDDTGTYYCAKPNWDYYALDYWGQGTSVTVSS
VL: DIQMTQTASSLFASLGDRVTISCRASQDISNYLNWYQQKPDGSIKLLISYTSRLHSGVPSRFSGSGSGTDYSLSISNLEQEDIATYFCQQGISLPCTFGGGTKLEVNR
B13: LK-RB1-21 (antibody, human IgG4 S228P, kappa, V domains shown)
VH: QVQLQQPGAELVKPGASVKMSCKASGYIFTDYWTTWVKQRPGQGLEWIGDIYPVSGSTNYNEKFKNKATLTVDTSSSTAYMQLSSLTSEDSAVYYCARALGRRYYFDYWGQGTTLTVSS
VL: DIVMTQSHKFMSTSIGDRVSITCKASQDVSTAVAWCQQKPGQSPKSLIYSASYRYTGIPDRFTGSGSGTDFTFTISSVQAEDLAVYYCQQHYTNPVTFGTGTKLELKR

Residue numbers refer to the chain shown, from its start.

T1 sequence (Q8NHL6 24-650): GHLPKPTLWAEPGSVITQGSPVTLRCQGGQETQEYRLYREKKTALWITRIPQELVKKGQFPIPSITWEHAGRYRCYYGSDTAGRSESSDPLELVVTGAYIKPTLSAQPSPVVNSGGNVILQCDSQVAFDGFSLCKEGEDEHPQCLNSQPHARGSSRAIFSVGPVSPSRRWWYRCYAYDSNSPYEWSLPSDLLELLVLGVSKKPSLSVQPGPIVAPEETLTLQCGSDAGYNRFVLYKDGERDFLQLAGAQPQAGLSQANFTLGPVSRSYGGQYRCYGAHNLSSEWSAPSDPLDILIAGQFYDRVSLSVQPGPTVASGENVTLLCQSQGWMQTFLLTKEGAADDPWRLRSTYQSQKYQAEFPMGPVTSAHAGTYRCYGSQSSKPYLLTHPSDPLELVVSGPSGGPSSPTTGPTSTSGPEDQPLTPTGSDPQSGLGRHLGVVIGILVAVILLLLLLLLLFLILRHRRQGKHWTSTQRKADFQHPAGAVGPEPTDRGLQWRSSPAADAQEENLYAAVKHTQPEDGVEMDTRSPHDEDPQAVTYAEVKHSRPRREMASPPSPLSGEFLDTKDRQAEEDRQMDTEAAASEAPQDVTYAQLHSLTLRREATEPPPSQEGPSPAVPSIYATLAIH

One assay addresses T1, human LILRB1 on CHOK1 cells (human, UniProt Q8NHL6 24-650).
T1 construct: whole, on cells; also called CHOK1-hLILRB1; CHOK1-LILRB1
Briefly: FACS binding, CHOK1-hLILRB1 cells. (In flow cytometry, cells or beads pass a laser one at a time.)
Usually EC50 stands for the midpoint of the concentration-response curve. A lower EC50 goes with a more potent agent. For B1, the concentration for a half-maximal effect (EC50) turned out to be 1.48 nM.
On the same count and under the same terms, to B2 belongs 1.07 nM.
The same measure, in the same setting: next, B3: 1.13 nM.
Still for that read-out and setting: next, B4: 0.85 nM; B5: 0.73 nM; B6: 0.71 nM.
For the molecule B7, it took 0.58 nM to reach a half-maximal effect (EC50).
The same measure, in the same setting: next, B8: 1.06 nM; B9: 0.51 nM; B10: 0.3 nM.
Still for that read-out and setting: to B11 belongs 1.76 nM; to B12, 2.38 nM.
The same measure, in the same setting: next, B13: 1.88 nM.

In another assay the target is T2, human LILRB2 on CHOK1 cells (human, UniProt Q8N423 22-597).
T2 construct: whole, on cells; also called CHOK1-hLILRB2; CHOK1-LILRB2
T2 sequence (Q8N423 22-597): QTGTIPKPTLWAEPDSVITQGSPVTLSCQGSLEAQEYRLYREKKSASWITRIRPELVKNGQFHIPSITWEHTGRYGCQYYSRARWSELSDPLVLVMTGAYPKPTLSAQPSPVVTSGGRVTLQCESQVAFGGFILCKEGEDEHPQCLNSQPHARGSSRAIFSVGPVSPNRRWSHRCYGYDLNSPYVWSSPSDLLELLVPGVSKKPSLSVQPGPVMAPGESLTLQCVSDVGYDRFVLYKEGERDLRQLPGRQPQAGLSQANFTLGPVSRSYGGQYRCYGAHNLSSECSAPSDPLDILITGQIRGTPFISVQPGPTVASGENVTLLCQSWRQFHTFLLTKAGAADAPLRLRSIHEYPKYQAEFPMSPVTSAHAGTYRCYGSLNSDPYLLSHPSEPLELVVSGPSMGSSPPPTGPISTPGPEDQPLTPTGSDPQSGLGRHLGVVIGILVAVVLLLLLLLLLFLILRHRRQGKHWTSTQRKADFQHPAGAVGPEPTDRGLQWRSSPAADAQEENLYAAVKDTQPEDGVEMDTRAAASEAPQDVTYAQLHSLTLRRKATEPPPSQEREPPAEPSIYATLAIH
Nature of the assay: FACS binding, CHOK1-hLILRB2 cells.
The molecule B1 displayed an EC50 of 1.04 nM.
For B2, the binding result was “no binding”.
The same measure, in the same setting: next, B3: “no binding”; B4: “no binding”; B5: “no binding”.
Regarding B6, the EC50 was determined as 4.95 nM.
For B7, the binding result is “no binding”.
On the same count and under the same terms, next, B8: “no binding”; B9: “no binding”; B10: “no binding”.
On the same count and under the same terms, to B11 belongs “no binding”.
On the same count and under the same terms, to B12 belongs “no binding”.
For the molecule B13, the binding result is recorded as “no binding”.

A further assay deals with T1, human LILRB1 on CHOK1 cells. Nature of the assay: cell-based RBA (FACS): blocking of HLA-G binding to CHOK1-hLILRB1 cells.
For the molecule B1, the midpoint of the response, the EC50, lay at 9.07 nM and the “Top Inhibition (%)” value is 64.8%.
On the same counts, the results for B2 are 0.62 nM and 98.1%.
Take B3: the EC50 stood at 1.38 nM and the “Top Inhibition (%)” value turned out to be 92.7%.
On to B4, for which the response was half-maximal at 0.52 nM (EC50) and the “Top Inhibition (%)” value turned out to be 97.4%.
For B5 the same measures were 0.56 nM and 95.3%.
On the same counts, the results for B6 are 0.9 nM and 98.7%.
Turning to B7, the EC50 is 0.47 nM and the “Top Inhibition (%)” value was 98.7%.
For B8 the same measures were 0.7 nM and 95.6%.
For B9 the same measures were 0.69 nM and 99.6%.
For B10 the same measures were 0.49 nM and 98.2%.
Turning to B11, a half-maximal response (EC50) required 1.4 nM and the “Top Inhibition (%)” value was found to be 100%.
On the same counts, the results for B12 are 2.93 nM and 93.3%.
For B13 the same measures were 0.53 nM and 98.1%.
